In doi:10.1101/2023.06.20.545120, “Magnetogenetic cell activation using endogenous ferritin” (bioRxiv, 2024):

Columns and labels:
mouse liver ferritin = molecular target: T1, mouse liver ferritin (Mus musculus, UniProt P09528;P29391); test: ELISA; first-round screen: crude periplasmic extracts of the clones on coated human spleen ferritin or mouse liver ferritin; absorbance ratio greater than 2.5 selected; conditions: one partner purified
T1 construct: ferritin heavy chain, mouse, as part of ferritin from liver; ferritin light chain, mouse, as part of ferritin from liver; Tissue ferritin is a shell of heavy and light chains; also called mouse ferritin; mouse ferritin purified from mouse liver; source: bought: Gentaur (purified from mouse liver)

human spleen ferritin [1] = molecular target: T2, human spleen ferritin (Homo sapiens, UniProt P02794;P02792); test: ITC; 10 uM human spleen ferritin in the cell, 75 uM NbFt2 in the syringe, 25 °C; MicroCal Auto-iTC200; conditions: both partners purified
T2 construct: ferritin heavy chain, human, as part of ferritin from spleen; ferritin light chain, human, as part of ferritin from spleen; Tissue ferritin is a shell of heavy and light chains; also called human ferritin; source: bought: Lee Biosolutions (human spleen ferritin)

[2] = molecular target: T3, GFP-tagged mouse ferritin (Mus musculus (ferritin moiety), UniProt P09528, chimera); test: affinity purification with mass spectrometry; the anti-HA immunoprecipitates of nanobody-HA-mCherry from HEK-293T with GFP-mFerritin; LC-MS/MS, abundance from peptides unique to mouse or human ferritin heavy chain; enrichment against cells with GFP-mFerritin alone; conditions: partners not purified
T3 construct: green fluorescent protein, the N-terminal GFP moiety of GFP-mFerritin; the rest of the chimeric ferritin and its linkers; ferritin heavy chain, mouse; found by mass spectrometry as the mouse ferritin of the construct; Runs at about 71 kDa; also called GFP-mFerritin; GFP-ferritin

[3] = molecular target: T4, endogenous human ferritin of HEK-293T cells (Homo sapiens (HEK-293T, endogenous), UniProt P02794;P02792); test: as above; conditions: partners not purified
T4 construct: ferritin heavy chain, human; the chain whose unique peptides were quantified; ferritin light chain, human; Only the heavy chain was measured; also called human ferritin heavy chain; FTH1_human

human spleen ferritin [4] = molecular target: T2, human spleen ferritin; test: ELISA; first-round screen: crude periplasmic extracts of the clones on coated human spleen ferritin or mouse liver ferritin; absorbance ratio greater than 2.5 selected; conditions: one partner purified
[5] = molecular target: T3, GFP-tagged mouse ferritin; test: co-IP; HEK-293T co-transfected with nanobody-HA-mCherry and GFP-mFerritin; lysis buffer 50 mM Tris pH 7.5, 300 mM NaCl, 1% NP-40, 0.1% SDS; anti-HA agarose overnight at 4 °C; eluate on SDS-PAGE, Coomassie; conditions: partners not purified

T4 sequence (P02794 whole entry, chain 1 of 2): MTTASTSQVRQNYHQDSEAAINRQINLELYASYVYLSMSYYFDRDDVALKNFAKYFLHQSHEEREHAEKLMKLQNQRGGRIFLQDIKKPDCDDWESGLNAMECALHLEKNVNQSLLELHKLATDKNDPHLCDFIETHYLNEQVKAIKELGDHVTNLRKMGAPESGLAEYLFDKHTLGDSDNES
T4 sequence (P02792 whole entry, chain 2 of 2): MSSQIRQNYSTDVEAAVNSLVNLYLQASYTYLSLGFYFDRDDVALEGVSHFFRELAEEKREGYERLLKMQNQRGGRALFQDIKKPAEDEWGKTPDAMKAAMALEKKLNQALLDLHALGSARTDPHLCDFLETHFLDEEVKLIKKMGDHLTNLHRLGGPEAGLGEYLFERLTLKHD
T2 sequence (P02794 whole entry, chain 1 of 2): as the sequence (P02794 whole entry, chain 1 of 2) above
T2 sequence (P02792 whole entry, chain 2 of 2): as the sequence (P02792 whole entry, chain 2 of 2) above
T1 sequence (P09528 whole entry, chain 1 of 2): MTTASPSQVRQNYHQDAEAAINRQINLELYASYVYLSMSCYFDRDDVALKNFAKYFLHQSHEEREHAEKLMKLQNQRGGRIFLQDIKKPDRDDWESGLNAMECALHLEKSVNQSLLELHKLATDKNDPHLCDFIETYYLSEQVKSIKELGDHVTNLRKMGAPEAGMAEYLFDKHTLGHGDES
T1 sequence (P29391 whole entry, chain 2 of 2): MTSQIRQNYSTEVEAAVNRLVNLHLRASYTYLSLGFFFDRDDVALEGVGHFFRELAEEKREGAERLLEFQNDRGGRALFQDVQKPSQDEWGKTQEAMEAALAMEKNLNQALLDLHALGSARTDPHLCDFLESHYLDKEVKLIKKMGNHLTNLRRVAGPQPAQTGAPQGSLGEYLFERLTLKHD

B1: anti-ferritin nanobody clone 8 (VHH)
VHH: QVQLQESGGGLVQPGGSLRLSCAASGFSFGDTWMYWVRQAPGKDIEWVAQISPSSVLINYPDSVSGRFTVGRDNAKNTLWLQMDSLKSEDTAVYYCATKMDGASRGQGTQVTVSS
notes: One of the 17 nanobodies of CDR3 groups 6 and 26; also called Nb-Ft clone 8; Nb-Ft-8; source: crude periplasmic extract of the phage display clone (pMECS)
- binding result (mouse liver ferritin): binds

B2: anti-ferritin nanobody clone 2 (VHH)
VHH: QVQLQESGGGLVQPGGSLRLSCAASGLAFSNYGMGWFRQAPGKEREFVSAVSWISDTTNYADSVKGRFTISRDNARNTVYLQMNSLKVEDTAVYYCAAGLGAPRVVAGSYQHWGQGTQVTVSS
notes: The text calls the preparation partially purified; also called Nb-Ft clone 2; Nb-Ft-2; source: crude periplasmic extract of the phage display clone (pMECS); E. coli WK6, purified (periplasmic extract, cobalt IMAC)
- Kd (human spleen ferritin [1]): 0.54 ± 0.2 µM

B3: anti-ferritin nanobody clone 2 fused to HA-tagged mCherry (VHH)
VHH: QVQLQESGGGLVQPGGSLRLSCAASGLAFSNYGMGWFRQAPGKEREFVSAVSWISDTTNYADSVKGRFTISRDNARNTVYLQMNSLKVEDTAVYYCAAGLGAPRVVAGSYQHWGQGTQVTVSS
notes: the VHH as in m4; In the functional rows this id stands for the same VHH fused to the N-terminus of TRPV1 (Nb-Ft-2-TRPV1^Ca2+); also called Nb-Ft-2; Nb-Ft-HA-mCherry (clone 2)
- fold enrichment in the immunoprecipitate over cells with GFP-mFerritin alone [2]: 14.5 fold
- fold enrichment in the immunoprecipitate over cells with GFP-mFerritin alone [3]: 58.1 fold

B4: anti-ferritin nanobody clone 11 (VHH)
VHH: QVQLQESGGGLVQPGGSLRLSCVATGLSFAKSWMYWVRQAPGKGLEWVAQISPSSVLIQYPDSVSGRFTVSRDNAKNTLFLQMDSLKSEDTAVYYCSTEMDGTSRGQGTQVTVSS
notes: One of the 17 nanobodies of CDR3 groups 6 and 26; also called Nb-Ft clone 11; Nb-Ft-11; source: crude periplasmic extract of the phage display clone (pMECS)
- binding result (mouse liver ferritin): binds

B5: anti-ferritin nanobody clone 16 (VHH)
VHH: QVQLQESGGGLVQPGGSLRLSCAASGLSFANSWMYWVRQAPGKGLEWVAQISPSSILIQYPDSVSGRFTVSRDNAKNTLFLQMDSLKPEDTAVYYCSTEMDGTSRGQGTQVTVSS
notes: One of the 17 nanobodies of CDR3 groups 6 and 26; also called Nb-Ft clone 16; Nb-Ft-16; source: crude periplasmic extract of the phage display clone (pMECS)
- binding result (mouse liver ferritin): binds

B6: anti-ferritin nanobody clone 13 (VHH)
VHH: QVQLQESGGGLVQPGGSLRLSCVASGLSFANSWMYWVRQAPGKGLEWVAQISPSSLLINYPNSVSGRFTVSRDNAKNTLFLQMDSLKSEDTAVYYCSTGMDGTSRGQGTQVTVSS
notes: One of the 17 nanobodies of CDR3 groups 6 and 26; also called Nb-Ft clone 13; Nb-Ft-13; source: crude periplasmic extract of the phage display clone (pMECS)
- binding result (mouse liver ferritin): binds

B7: anti-ferritin nanobody clone 4 (VHH)
VHH: QVQLQESGGGLVQPGGSLRLSCAASGLSFANSWMYWVRQAPGKGLEWVAQISPSSLLINYPDSVSGRFTVSRDNAKNTLFLQMDSLKPEDTAVYYCSTEMDGTSRGQGTQVTVSS
notes: One of the 17 nanobodies of CDR3 groups 6 and 26; also called Nb-Ft clone 4; Nb-Ft-4; source: crude periplasmic extract of the phage display clone (pMECS)
- binding result (human spleen ferritin [4]): binds

B8: anti-ferritin nanobody clone 15 (VHH)
VHH: QVQLQESGGGLVQPGGSLRLSCAASGLSFAKSWMYWVRQAPGKGLEWVAQISPSSVLIQYPDSVSGRFTVSRDNAKNTLFLQMDSLKPEDAAQYYCATDMSGTYRGQGTQVTVSS
notes: One of the 17 nanobodies of CDR3 groups 6 and 26; also called Nb-Ft clone 15; Nb-Ft-15; source: crude periplasmic extract of the phage display clone (pMECS)
- binding result (mouse liver ferritin): binds

B9: anti-ferritin nanobody clone 1 (VHH)
VHH: QVQLQESGGGLVQAGGSLRLSCTASGLAFSSYAMGWFRQAPGKEREFVATIGWTGGTTNYADSVKGRFTISRDNARNTVYLQMNSLKVEDTAVYYCAAGLGAPTVVAGSYQHWGQGTQVTVSS
notes: One of the 17 nanobodies of CDR3 groups 6 and 26; also called Nb-Ft clone 1; Nb-Ft-1; source: crude periplasmic extract of the phage display clone (pMECS)
- binding result (human spleen ferritin [4]): binds

B10: anti-ferritin nanobody clone 9 (VHH)
VHH: QVQLQESGGGLVQAGGSLRLSCAASGLAFSSYGMGWFRQAPGKEREFVAAIRWSGGTTNYADSVKGRFTISRDNVRNTAYLQMNSLKVEDTAVYYCAAGLGAPTVVADSYQHWGQGTQVTVSS
notes: The text calls the preparation partially purified; also called Nb-Ft clone 9; Nb-Ft-9; source: crude periplasmic extract of the phage display clone (pMECS); E. coli WK6, purified (periplasmic extract, cobalt IMAC)
- binding result (mouse liver ferritin): binds

B11: anti-ferritin nanobody clone 6 (VHH)
VHH: QVQLQESGGGLVQAGGSLRLSCAASGLAFSSYGMGWFRQAPGKEREFVAAIGWTGGTTNYADSVKGRFIISRDNARNTVYLQMNSLKVEDTAVYYCAAGLGAPMVVVGSYQHWGQGTQVTVSS
notes: One of the 17 nanobodies of CDR3 groups 6 and 26; also called Nb-Ft clone 6; Nb-Ft-6; source: crude periplasmic extract of the phage display clone (pMECS)
- binding result (human spleen ferritin [4]): binds

B12: anti-ferritin nanobody clone 10 fused to HA-tagged mCherry (VHH)
VHH: QVQLQESGGGLVQAGGSLRLSCAASGLAFSSYGMGWFRQAPGKEREFVVAIPWSGGTTNYADSVKGRFTISRDNARNTVYLQMNSLKVEDTAVYYCAAGLGAPTVVADSYQHWGQGTQVTVSS
notes: the VHH as in m12; also called Nb-Ft-10; Nb-Ft-HA-mCherry (clone 10)
- binding result [5]: binds
- fold enrichment in the immunoprecipitate over cells with GFP-mFerritin alone [3]: 7 fold

B13: anti-ferritin nanobody clone 14 fused to HA-tagged mCherry (VHH)
VHH: QVQLQESGGGLVQPGGSLRLSCAASGLAFSSYGMGWFRQAPGKEREFVVAIPWSGGTTNYADSVKGRFTISRDNARNTVYLQMNSLKVEDTAVYYCAAGLGAPTVVADSYQHWGQGTQVTVSS
notes: the VHH as in m16; In the functional row this id stands for the same VHH fused to the N-terminus of TRPV1; also called Nb-Ft-14; Nb-Ft-HA-mCherry (clone 14)
- binding result [5]: binds
- fold enrichment in the immunoprecipitate over cells with GFP-mFerritin alone [3]: 5.1 fold

B14: anti-ferritin nanobody clone 10 (VHH)
VHH: QVQLQESGGGLVQAGGSLRLSCAASGLAFSSYGMGWFRQAPGKEREFVVAIPWSGGTTNYADSVKGRFTISRDNARNTVYLQMNSLKVEDTAVYYCAAGLGAPTVVADSYQHWGQGTQVTVSS
notes: The text calls the preparation partially purified; also called Nb-Ft clone 10; Nb-Ft-10; source: crude periplasmic extract of the phage display clone (pMECS); E. coli WK6, purified (periplasmic extract, cobalt IMAC)
- binding result (mouse liver ferritin): binds

B15: anti-ferritin nanobody clone 7 (VHH)
VHH: QVQLQESGGGLVQAGGSLRLSCAASGLAFSSYAMGWFRQAPGKEREFVAAIMWSGGTTNYADSVKGRFTISRDNVRNTVYLQMNSLKVEDAAVYYCAAGLGAPTVVADSFQHWGQGTQVTVSS
notes: One of the 17 nanobodies of CDR3 groups 6 and 26; also called Nb-Ft clone 7; Nb-Ft-7; source: crude periplasmic extract of the phage display clone (pMECS)
- binding result (human spleen ferritin [4]): binds

B16: anti-ferritin nanobody clone 12 (VHH)
VHH: QVQLQESGGGLVQAGGSLRLSCAASGLAFSSYGMGWFRQAPGEEREFVAAISWSGGTTNYADFVKGRFTISRDNARNTVYLQMNSLKVEDTAVYYCAAGLGAPTVVAGSYQHWGQGTQVTVSS
notes: One of the 17 nanobodies of CDR3 groups 6 and 26; also called Nb-Ft clone 12; Nb-Ft-12; source: crude periplasmic extract of the phage display clone (pMECS)
- binding result (mouse liver ferritin): binds

B17: anti-ferritin nanobody clone 9 fused to HA-tagged mCherry (VHH)
VHH: QVQLQESGGGLVQAGGSLRLSCAASGLAFSSYGMGWFRQAPGKEREFVAAIRWSGGTTNYADSVKGRFTISRDNVRNTAYLQMNSLKVEDTAVYYCAAGLGAPTVVADSYQHWGQGTQVTVSS
notes: the VHH as in m11; In the functional row this id stands for the same VHH fused to the N-terminus of TRPV1; also called Nb-Ft-9; Nb-Ft-HA-mCherry (clone 9)
- binding result [5]: binds
- fold enrichment in the immunoprecipitate over cells with GFP-mFerritin alone [3]: 4.6 fold

B18: anti-ferritin nanobody clone 14 (VHH)
VHH: QVQLQESGGGLVQPGGSLRLSCAASGLAFSSYGMGWFRQAPGKEREFVVAIPWSGGTTNYADSVKGRFTISRDNARNTVYLQMNSLKVEDTAVYYCAAGLGAPTVVADSYQHWGQGTQVTVSS
notes: The text calls the preparation partially purified; also called Nb-Ft clone 14; Nb-Ft-14; source: crude periplasmic extract of the phage display clone (pMECS); E. coli WK6, purified (periplasmic extract, cobalt IMAC)
- binding result (mouse liver ferritin): binds

B19: anti-ferritin nanobody clone 3 (VHH)
VHH: QGQLQESGGGAVQAGGSLRLSCAASGLAFSSYGMGWFRQAPGKEREFVASISWTGGTTNYADSVKGRLTISRDNARNTVYLQMNSLKVEDTAVYYCAAGLGAPRVVAGSYQHWGQGTQVTVSS
notes: One of the 17 nanobodies of CDR3 groups 6 and 26; also called Nb-Ft clone 3; Nb-Ft-3; source: crude periplasmic extract of the phage display clone (pMECS)
- binding result (human spleen ferritin [4]): binds

B20: anti-ferritin nanobody clone 5 (VHH)
VHH: QVQLQESGGGLVQAGGSLRLSCAASGLAFSSYGMGWFRQAPGKEREFVASISWSGGTTNYADSVKGRLTISRDNARNTVYLQMNSLKVEDTAVYYCAAGLGAPRVVAGSYQHWGQGTQVTVSS
notes: One of the 17 nanobodies of CDR3 groups 6 and 26; also called Nb-Ft clone 5; Nb-Ft-5; source: crude periplasmic extract of the phage display clone (pMECS)
- binding result (human spleen ferritin [4]): binds

B21: anti-ferritin nanobody clone 17 (VHH)
VHH: QVQLQESGGGAVQAGGSLRLSCAASGLAFSSYGMGWFRQAPGKEREFVAAISWGDGTTNYADSVKGRLTISRDNARNTVYLQMNSLKVGDTAVYYCAAGLGAPRAVAGSFQHWGQGTQVTVSS
notes: The text calls the preparation partially purified; also called Nb-Ft clone 17; Nb-Ft-17; source: crude periplasmic extract of the phage display clone (pMECS); E. coli WK6, purified (periplasmic extract, cobalt IMAC)
- binding result (mouse liver ferritin): binds

B22: anti-ferritin nanobody clone 17 fused to HA-tagged mCherry (VHH)
VHH: QVQLQESGGGAVQAGGSLRLSCAASGLAFSSYGMGWFRQAPGKEREFVAAISWGDGTTNYADSVKGRLTISRDNARNTVYLQMNSLKVGDTAVYYCAAGLGAPRAVAGSFQHWGQGTQVTVSS
notes: the VHH as in m19; also called Nb-Ft-17; Nb-Ft-HA-mCherry (clone 17)
- fold enrichment in the immunoprecipitate over cells with GFP-mFerritin alone [2]: 6 fold
- fold enrichment in the immunoprecipitate over cells with GFP-mFerritin alone [3]: 20.9 fold
